Laboratory results taken from patent US8436159B2, “Glyphosate resistant class I 5-endolpyruvylshikimate-3-phosphate synthase (EPSPS)” (Monsanto Technology LLC, priority 2003, dated 2013).
Residue numbers refer to the chain shown, from its start. Names and notes keep the numbering of the source.

What was measured:
[1] = tested on: E. coli EPSPS, native; conditions: read-out: apparent Km for PEP; native enzyme; cited from earlier work
[2] = tested on: E. coli EPSPS variant, alanine for the glycine at position 96 (G96A); conditions: read-out: apparent Km for PEP; glyphosate-resistant isolate; cited from earlier work
[3] = molecular target: T1, maize (Zea mays) class I EPSPS, wild type (WT), pMON70461, DNA SEQ ID NO:3 (Zea mays, UniProt O24566); experiment: EPSPS steady-state kinetics, wild-type maize EPSPS; assay type: biochemical
T1 construct: pMON70461
T1 sequence (O24566 with tags, fused parts or gaps): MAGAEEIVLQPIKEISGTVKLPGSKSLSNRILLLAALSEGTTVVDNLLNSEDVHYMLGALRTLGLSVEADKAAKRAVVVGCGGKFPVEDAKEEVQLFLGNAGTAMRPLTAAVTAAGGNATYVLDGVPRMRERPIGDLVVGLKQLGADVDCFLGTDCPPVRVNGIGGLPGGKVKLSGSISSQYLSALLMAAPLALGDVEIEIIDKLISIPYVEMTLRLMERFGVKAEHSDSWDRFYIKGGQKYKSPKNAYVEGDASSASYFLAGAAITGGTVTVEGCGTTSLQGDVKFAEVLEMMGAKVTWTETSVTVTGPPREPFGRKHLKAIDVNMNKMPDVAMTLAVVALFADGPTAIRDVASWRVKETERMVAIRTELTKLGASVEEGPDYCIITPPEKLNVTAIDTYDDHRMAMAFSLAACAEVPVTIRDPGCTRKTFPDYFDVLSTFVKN
Description: The wild type and variant EPSPS coding sequences were cloned into a pET-19b base vector (Novagen, Madison, Wis.). The plant (maize) class I EPSPS variants so created were assigned pMON plasmid numbers (Table 2). The variant EPSPS proteins were purified from the E. coli host using the protocols outlined in the pET system manual, 9th edition (Novagen) or by the following method. A single colony or a few microliters from a glycerol stock was inoculated into 4 mL LB medium containing 0.1 mg/mL carbenicillin antibiotic. The culture was incubated with shaking at 37 C for 4 hours. The cultures were stored at 4° C. overnight. The following morning, 1 mL of the overnight culture was used to inoculate 100 mL of fresh LB medium containing 0.1 mg/mL carbenicillin. The cultures were incubated with shaking at 37 C for 4-5 hours, then the cultures were placed at 4° C. for 5-10 minutes. The cultures were then induced with IPTG (1 mM final concentration) and incubated with shaking at 30 C for 4 hours or 20° C. overnight. The cells were harvested by centrifugation at 7000 rpm for 20 minutes at 4° C. The supernatant was removed and the cells were frozen at −70° C. until further use. The proteins were extracted by resuspending the cell pellet in BugBuster reagent (Novagen) using 5 mL reagent per gram of cells. Benzonase (125 Units) was added to the resuspension and the cell suspension was then incubated on a rotating mixer for 20 minutes at room temperature. The cell debris was removed by centrifugation at 10,000 rpm for 20 minutes at room temperature. The supernatant was passed through a 0.45 μm syringe-end filter and transferred to a fresh tube. A pre-packed columns containing 1.25 mL of His-Bind resin was equilibrated with 10 mL of 5 mM imidazole, 0.5 M NaCl, 20 mM Tris-HCl pH 7.9 (1× Binding Buffer). The column was then loaded with the prepared cell extract. After the cell extract had drained, the column was then washed with 10 mL of 1× Binding Buffer, followed with 10 mL of 60 mM imidazole, 0.5 M NaCl, 20 mM Tris-HCl pH 7.9 (1× Wash Buffer). […]

[4] = substrate: C=C(OP(=O)(O)O)C(=O)O; experiment: EPSPS steady-state kinetics, TIPA variant; assay type: biochemical, maize (Zea mays); conditions: other: pH 7.0, 1 mM shikimate-3-phosphate, Table 2
Description: The double variants of the present invention were made using pMON58452 (FIG. 5) as the template. This pMON58452 EPSPS gene template contains the maize EPSPS double variant T102I, P106T (TIPT) that was constructed by mutagenesis of pMON70467 with the mutagenesis primers mEmut-9-U and mEmut-10-L. The various mutagenesis primer sequences were designed and then were synthesized by Invitrogen Corp., Custom Primers and used in combination in a PCR to create the variant EPSPS coding sequences. The PCR was set up in a 50 μl reaction in the following manner: dH2O 38 μl; 2 mM dNTP 1 μL; 10× buffer 5 μL; pMON58452 1 μL (10 ng); primer-U 2 μL; primer-L 2 μL; pfu Turbo enzyme 1 μL. PCR was carried out on a MJ Research PTC-200 thermal cycler using the following program: Step 1—94° C. for 30 seconds; Step 2—94° C. for 30 seconds; Step 3—55° C. for 1 minute; Step 4—68° C. for 14 minute; Step 5—go to step 2, 16 times; Step 6—End. At the end of the PCR, 1 μl of the restriction enzyme DpnI was added to each 50 μl of PCR reaction and the mixture was incubated at 37° C. for 1 hour. The proline (106) amino acid codon of pMON58452 was substituted in subsequent steps to provide additional variants that include TWO (primer P106G-U, SEQ ID NO:14 and -L, SEQ ID NO:15), TIPA (primer P106A-U, SEQ ID NO:16 and -L, SEQ ID NO:17), TIPV (primer P106V-U, SEQ ID NO:18 and -L, SEQ ID NO:19), TIPL (primer P106L-U, SEQ ID NO:20 and -L, SEQ ID NO:21), TIPI (primer P106I-U, SEQ ID NO:22 and -L, SEQ ID NO:23), TIPM (primer P106M-U, SEQ ID NO:24 and -L, SEQ ID NO:25), and TIPC (primer P106C-U, SEQ ID NO:26 and -L, SEQ ID NO:27). The double variants of the gene encoding the EPSPS protein were generated using the PCR conditions described above.
The wild type and variant EPSPS coding sequences were cloned into a pET-19b base vector (Novagen, Madison, Wis.). […] The variant EPSPS proteins were purified from the E. coli host using the protocols outlined in the pET system manual, 9th edition (Novagen) or by the following method. […]

[5] = substrate: C=C(OP(=O)(O)O)C(=O)O; experiment: EPSPS steady-state kinetics, TIPG variant; assay type: biochemical, maize (Zea mays); conditions: other: pH 7.0, 1 mM shikimate-3-phosphate
Description: (§1) The double variants of the present invention were made using pMON58452 (FIG. 5) as the template. This pMON58452 EPSPS gene template contains the maize EPSPS double variant T102I, P106T (TIPT) that was constructed by mutagenesis of pMON70467 with the mutagenesis primers mEmut-9-U and mEmut-10-L. The various mutagenesis primer sequences were designed and then were synthesized by Invitrogen Corp., Custom Primers and used in combination in a PCR to create the variant EPSPS coding sequences. The PCR was set up in a 50 μl reaction in the following manner: dH2O 38 μl; 2 mM dNTP 1 μL; 10× buffer 5 μL; pMON58452 1 μL (10 ng); primer-U 2 μL; primer-L 2 μL; pfu Turbo enzyme 1 μL. PCR was carried out on a MJ Research PTC-200 thermal cycler using the following program: Step 1—94° C. for 30 seconds; Step 2—94° C. for 30 seconds; Step 3—55° C. for 1 minute; Step 4—68° C. for 14 minute; Step 5—go to step 2, 16 times; Step 6—End. At the end of the PCR, 1 μl of the restriction enzyme DpnI was added to each 50 μl of PCR reaction and the mixture was incubated at 37° C. for 1 hour. […]

[6] = substrate: C=C(OP(=O)(O)O)C(=O)O; experiment: EPSPS steady-state kinetics, TIPV variant; assay type: biochemical, maize (Zea mays); conditions: other: pH 7.0, 1 mM shikimate-3-phosphate
Description: (§2) The variant EPSPS proteins were purified from the E. coli host using the protocols outlined in the pET system manual, 9th edition (Novagen) or by the following method. A single colony or a few microliters from a glycerol stock was inoculated into 4 mL LB medium containing 0.1 mg/mL carbenicillin antibiotic. The culture was incubated with shaking at 37 C for 4 hours. The cultures were stored at 4° C. overnight. The following morning, 1 mL of the overnight culture was used to inoculate 100 mL of fresh LB medium containing 0.1 mg/mL carbenicillin. The cultures were incubated with shaking at 37 C for 4-5 hours, then the cultures were placed at 4° C. for 5-10 minutes. The cultures were then induced with IPTG (1 mM final concentration) and incubated with shaking at 30 C for 4 hours or 20° C. overnight. The cells were harvested by centrifugation at 7000 rpm for 20 minutes at 4° C. The supernatant was removed and the cells were frozen at −70° C. until further use. The proteins were extracted by resuspending the cell pellet in BugBuster reagent (Novagen) using 5 mL reagent per gram of cells. Benzonase (125 Units) was added to the resuspension and the cell suspension was then incubated on a rotating mixer for 20 minutes at room temperature. The cell debris was removed by centrifugation at 10,000 rpm for 20 minutes at room temperature. […]

[7] = substrate: C=C(OP(=O)(O)O)C(=O)O; experiment: EPSPS steady-state kinetics, TIPS variant; assay type: biochemical, maize (Zea mays); conditions: other: pH 7.0, 1 mM shikimate-3-phosphate
Description: Mutations were made using plant EPSPS DNA coding sequence template as an example of class I EPSPSs. […] All the variants were made using the PCR-based QuickChange™ Site-directed Mutagenesis Kit (Stratagene, La Jolla, Calif., Cat. No. 200518) following the manufactures instructions. The DNA sequence of each mutagenesis primer was designed, and then ordered from Invitrogen Corp., Custom Primers (Carlsbad, Calif.). Mutagenesis of a maize wild-type DNA molecule (SEQ ID NO:3) encoding the EPSPS enzyme was performed using pMON70461 (FIG. 3) as the template. pMON70461 contains the unmodified wild-type maize EPSPS coding sequence. […] The single EPSPS variants were created by mutagenesis of the maize wild-type EPSPS DNA coding sequence as controls for measuring the efficacy of the double variant EPSPSs.
The wild type and variant EPSPS coding sequences were cloned into a pET-19b base vector (Novagen, Madison, Wis.). […] The variant EPSPS proteins were purified from the E. coli host using the protocols outlined in the pET system manual, 9th edition (Novagen) or by the following method. […] Protein concentration was determined using Bio-Rad protein assay (Bio-Rad Laboratories, CA). […] The samples were read at OD595 after ˜5 minutes using a spectraMAX 250 plate reader (Molecular Devices Corporation, Sunnyvale, Calif.) and compared to the standard curve. […]

[8] = substrate: C=C(OP(=O)(O)O)C(=O)O; experiment: EPSPS steady-state kinetics, TIPT variant; assay type: biochemical, maize (Zea mays); conditions: other: pH 7.0, 1 mM shikimate-3-phosphate
Description: as §1

[9] = substrate: C=C(OP(=O)(O)O)C(=O)O; experiment: EPSPS steady-state kinetics, TIPI variant; assay type: biochemical, maize (Zea mays); conditions: other: pH 7.0, 1 mM shikimate-3-phosphate
Description: as §1

[10] = substrate: C=C(OP(=O)(O)O)C(=O)O; experiment: purified protein, by the assay type; conditions: other: pH 7.0, 1 mM shikimate-3-phosphate
Description: as §1

[11] = substrate: C=C(OP(=O)(O)O)C(=O)O; experiment: EPSPS steady-state kinetics, TIPM variant; assay type: biochemical, maize (Zea mays); conditions: other: pH 7.0, 1 mM shikimate-3-phosphate
Description: as §2

C=C(OP(=O)(O)O)C(=O)O [PEP, phosphoenolpyruvate]
Km [1]: 10 µM | Km [2]: 220 µM | kcat ([3]; Table 5): 8.8 ± 0.5 s⁻¹ | Km ([3]; pH 7.0, 1 mM shikimate-3-phosphate, Table 2, read-out: Km-PEP): 27 ± 4 µM

B1: maize (Zea mays) class I EPSPS variant TIPA (T102I, P106A), pMON42481, ZmTIPA SEQ ID NO:39 (Zea mays; P106A/T102I) (protein)
chain: AGAEEIVLQPIKEISGTVKLPGSKSLSNRILLLAALSEGTTVVDNLLNSEDVHYMLGALRTLGLSVEADKAAKRAVVVGCGGKFPVEDAKEEVQLFLGNAGIAMRALTAAVTAAGGNATYVLDGVPRMRERPIGDLVVGLKQLGADVDCFLGTDCPPVRVNGIGGLPGGKVKLSGSISSQYLSALLMAAPLALGDVEIEIIDKLISIPYVEMTLRLMERFGVKAEHSDSWDRFYIKGGQKYKSPKNAYVEGDASSASYFLAGAAITGGTVTVEGCGTTSLQGDVKFAEVLEMMGAKVTWTETSVTVTGPPREPFGRKHLKAIDVNMNKMPDVAMTLAVVALFADGPTAIRDVASWRVKETERMVAIRTELTKLGASVEEGPDYCIITPPEKLNVTAIDTYDDHRMAMAFSLAACAEVPVTIRDPGCTRKTFPDYFDVLSTFVKN
notes: pMON42481
Km [4]: 10.2 ± 1.1 µM | kcat [4]: 2.1 ± 0.1 s⁻¹ | kcat/Km [4]: 0.2 µM^−1s^−1

B2: maize (Zea mays) class I EPSPS variant TIPG (T102I, P106G), pMON42480 (Zea mays; P106G/T102I) (protein)
chain: B1 chain with A106G
notes: pMON42480
Km [5]: 23.0 ± 3.7 µM

B3: maize (Zea mays) class I EPSPS variant TIPV (T102I, P106V), pMON42482 (Zea mays; P106V/T102I) (protein)
chain: B1 chain with A106V
notes: pMON42482
Km [6]: 109.3 ± 12.9 µM

B4: maize (Zea mays) class I EPSPS variant TIPS (T102I, P106S), pMON70462 (Zea mays; P106S/T102I) (protein)
chain: B1 chain with A106S
notes: pMON70462
Km [7]: 10.6 ± 1.6 µM

B5: maize (Zea mays) class I EPSPS variant TIPT (T102I, P106T), pMON58452, ZmTIPT SEQ ID NO:38 (Zea mays; P106T/T102I) (protein)
chain: B1 chain with A106T
notes: pMON58452
Km [8]: 11.2 ± 1.8 µM

B6: maize (Zea mays) class I EPSPS variant TIPI (T102I, P106I), pMON42486 (Zea mays; P106I/T102I) (protein)
chain: B1 chain with A106I
notes: pMON42486
Km [9]: 60.3 ± 2.8 µM

B7: maize (Zea mays) class I EPSPS variant TIPC (T102I, P106C), pMON42485 (Zea mays; P106C/T102I) (protein)
chain: B1 chain with A106C
Km [10]: 47.0 ± 4.0 µM

B8: maize (Zea mays) class I EPSPS variant TIPM (T102I, P106M), pMON42484 (Zea mays; P106M/T102I) (protein)
chain: B1 chain with A106M
notes: pMON42484
Km [11]: 143.3 ± 12.6 µM
